± gives the uncertainty stated by the source.
Assay: amyloid nucleation score (Sup35N fusion, yeast selection) (log enrichment); library NNK2; higher = more nucleation; inactive = no reads after selection
How it was run: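 In psi-negative yeast, Sup35N fusions carrying peptides of 20 random codons were induced with 100 μM copper sulfate for 24 hours. The cells then grew 7 days at 30°C on medium lacking adenine and uracil, and plasmid inserts from input and output were Illumina-sequenced, excluding sequences with under 100 input reads. Nucleation score is the DiMSum log enrichment of output over input reads, centred on the mode score of non-aggregating sequences.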

Substance	amyloid nucleation score
FINNNNGAPSRVHPTGALTR	-0.357 ± 0.53
VCVLKGDGGL	0.339 ± 0.55
QLYKRSE	0.256 ± 0.27
RLNVKDYFCYIAQESKTTDR	4.76 ± 0.083
VAYYEDVLSSYFIERW	-0.392 ± 0.29
RTVLFAGCAVSNEMFCEKLV	3.68 ± 0.077
VVYRLDFRPFNSPPCMRSAS	0.074 ± 0.32
IVWLMHSSSHRT	5.79 ± 0.076
LGIYIVGTNVSSSWLFLCNR	0.476 ± 0.4
SVLSLTKMFGFVADGSRIIK	-0.574 ± 0.5
YMTVSRVHISRVCCVYTLNV	5.44 ± 0.064
VPSQASGTRACKHNWTVWLE	1.33 ± 0.25
TQSWVAISLVRHRSWGSWLG	3.57 ± 0.07
DGRIVYEPSKSARFWKVKCL	-0.335 ± 0.79
FMMELCLALYLLSYQ	0.061 ± 0.8
SMNFRTTSSHSDILYPALC	0.24 ± 0.48
AKYRLVVLSEFYSLTPRVLD	-0.107 ± 1
VYTFK	0.667 ± 0.66
TCVVMAKGKLVVPVQEYPCV	2.62 ± 0.11
MMNTKFINWDKMLDIGYRAD	0.877 ± 0.8
SGRTGIGWYLFCRPYPIVYA	0.277 ± 0.39
SFDVYVEARLMDSVTGLDRI	0.437 ± 0.32
VYFSSSIADKFYNLISVRFI	0.833 ± 0.8
YGPICEYFQGCEALSWWSTC	0.39 ± 0.2
IFLQNTSSEWLLSARDRLRY	0.157 ± 1

Substance	amyloid nucleation score
LLFLAG	-0.358 ± 0.79
VYKYNISFLEPKHESQAWNK	0.042 ± 0.63
CRGDRFSRSST	-0.217 ± 0.79
YSKDSMDSYMMIMFGSVACH	0.681 ± 0.6
VIMVTSPQFKKPKLYMDKRD	-1.03 ± 0.54
DHRRCDSMRTDC	0.098 ± 1
IFPGILH	-1.83 ± 0.63
LDCLRFTDFILIISKFVPVL	0.026 ± 1.1
RDCIRAVSCVIENTGPSAYE	0.049 ± 0.56
CLTYYTCLTWKMPCGIRHQG	0.428 ± 0.22
EARVSRLFT	0.542 ± 0.18
MSFKDNYQPK	-0.707 ± 0.76
SVDHLDSVFDYFHVRYKFIS	-1.09 ± 1.1
RNFDRGWSHR	0.319 ± 0.4
HLMCESGRVFWKD	0.015 ± 0.31
FVNQPKVRYLVSCYFMANLP	0.016 ± 0.54
RSPMWLAGLMNIYSP	2.87 ± 0.084
FYVRGGCI	-2.22 ± 0.76
WFMERVFYNSTNSTQLFEWV	inactive
LNVGPQGYMCGSPLYDHCG	2.73 ± 0.076
GGMLPYVVITFETFMPRCMN	-1.7 ± 0.75
NRDVFWRFLVTTVVYELSSK	inactive
PSYDVCSMDCLDEKDGFMWL	0.25 ± 0.62
IPASDRYKVFRLWHQFRLVG	-0.001 ± 0.56
SNGFGCAEVSGYYVSN	-0.691 ± 0.79

Substance	amyloid nucleation score
ASAGCTTGTLGGPHHRHMIV	0.523 ± 0.26
WQSSSILIASSCVRSPGLPV	0.27 ± 0.46
RLRIMYSTLLATGMV	0.178 ± 0.5
RSAILEEDFDCHMYWGL	0.916 ± 0.31
FKLGGSNVDDFFVFNWITVF	-0.596 ± 0.76
GWWNHGSSMGYFERVSSTFW	inactive
CVMLMCRGDV	3.87 ± 0.091
TFLTLA	0.979 ± 0.4
WCAPWPWVKCLFTSPVFSVV	0.712 ± 0.4
NGDLCILLTWATWGSTE	0.686 ± 0.33
IANKCVS	-1.12 ± 0.55
MKGEMF	-0.345 ± 0.28
VTDYYYLCKFKSRVP	-0.799 ± 0.78
ISPISLTISLLIGYTSGCLR	3.15 ± 0.066
HHSELFIIITYFG	0.206 ± 0.5
NQLKGYTIYWVL	4.45 ± 0.063
ILFGIPN	-0.314 ± 0.24
CDANM	0.785 ± 0.51
LRKIYFWWAATNALLEMRGW	0.057 ± 0.38
RLDRVIFY	1.85 ± 0.099
ATYINLVINSKSARLFLICG	4.732 ± 0.036
WWDRVRLFRYRLCGSKSLMS	0.429 ± 0.38
YTGHFTSC	-0.496 ± 0.48
VDRDSPKYVHA	0.917 ± 0.32
SCMSFVLKFPQTLSVWVCWG	4.97 ± 0.072

Substance	amyloid nucleation score
NKSSLRVCRPLSWNMSMVSN	0.593 ± 0.44
FYKNAP	-1.06 ± 1.1
GLNVLCSLAIKAKLDGRWRH	9.371 ± 0.072
GNKMGCLFIGYCGFCTTVRP	1.74 ± 0.15
SGCTGFCRRGPVRCWGSCLL	inactive
LVYVWKDLAYMVLLHFRLFL	-1.16 ± 1.1
AVSFRFIGVYRGM	3.95 ± 0.12
CSYSFDLTANICPISLNVVC	5.001 ± 0.043
INVSVFVVFRNRQRLKC	7.363 ± 0.058
RCNQLIWTASDNWYYMWTTV	1.8 ± 0.1
MCFAHVRNFSEW	1.47 ± 0.15
PRKLLSLKPNSTAAGKCATL	2.89 ± 0.079
TSTCNRRVIWMHLEPGELCV	-0.375 ± 0.76
LNDHNFLCPLTYKVRRLYNN	-1.53 ± 0.53
YGPSCSICPVVVIPSF	inactive
AYDFGVA	-0.263 ± 1.1
IRVRGFPSSHRSV	-0.901 ± 0.78
CDLIASQSVIAIVNIMIRHV	6.63 ± 0.062
TNHYSSVRS	-0.195 ± 0.54
GVVFFFGKDNGRDIMSGTRY	inactive
KCHCRAMS	inactive
VRDLTCSNNITILFMHW	6.13 ± 0.079
TYLLLWSCGWLSWRVICALR	4.66 ± 0.089
ADCLKSCLAMSGF	-0.14 ± 0.8
NYVVE	4.73 ± 0.069

Substance	amyloid nucleation score
VSKLNLLNIHCAKPFLLEL	3.38 ± 0.13
VTYFTILNHMCW	6.602 ± 0.04
YNISDLSMSYMAIRAYDSGS	-1.38 ± 0.62
CCVMVELLVYFPM	1.88 ± 0.098
WYALNYTIPEPYWT	0.881 ± 0.48
SYEAGMHVNKGYLQVMCVDG	-0.086 ± 0.23
VHLPCGYLKFRGLMYWRREL	0.479 ± 0.34
YQFTGFLLGRVIASIIRHGV	0.023 ± 0.45
SALCNDVVRPMMVFSENCAK	0.225 ± 0.31
SIAHGQTSQNSTEWARVDG	0.387 ± 0.29
ICPFKSWFFYSLPYAFVRFT	inactive
NIMSFFHLSLGVDFVHVSPG	0.144 ± 0.19
QNESHIH	6.31 ± 0.079
TLTSSCVNFINMLHEIFRYS	-0.623 ± 1
GVTKNCSC	-0.036 ± 0.63
GTLFIRSPYFCL	-0.478 ± 0.61
CNVASFELVLRD	inactive
SFVLIKIMILLCDAVYGH	3.58 ± 0.054
NGVQKVVCQGTRLGCVLGLD	0.131 ± 0.45
FGLWQVPSGWNTADRA	0.743 ± 0.58
VQMYCRSSAQPRVAILAMSG	1.16 ± 0.12
CFGISSS	-1.12 ± 0.36
MVLLLQASSI	-0.354 ± 0.54
DFVRY	-0.484 ± 0.63
MGTPLNFGCQY	-1.26 ± 0.48

Substance	amyloid nucleation score
PYELCDRTVRMSFWVTVWGH	0.281 ± 0.49
SFHFCWFRYNWCYFGLS	0.058 ± 1
DRRLCLCLLIMSC	-0.578 ± 0.79
YSLWLVVCYLLVCWNINCGT	0.366 ± 0.44
RSLDQSIVNRVVVYFSGWCV	3.62 ± 0.073
VSTILYLDY	0.218 ± 1.1
HWMVGKV	0.164 ± 0.28
YSRGWVHVI	0.384 ± 0.56
MVINSAWVCENGLSQYFLAK	4.27 ± 0.075
SASWGLQSYNSRCGRLTNRF	0.524 ± 0.81
FVFLVYYFSEFIH	inactive
NRKSSHYSKNCRTLLHTS	-0.097 ± 1.1
SLQGVM	-1.04 ± 0.44
NEYMYVR	0.969 ± 0.52
HIGCIRWFSCGGSPLSMNRL	1.24 ± 0.2
CSVRSSAIYIRSCHHGWFYC	-1.19 ± 1.1
AFSNSM	0.988 ± 0.52
LSMEVRGMVATMVVTWNFVS	0.07 ± 0.32
VVYPCFSIMLQMEVLYIVFI	1.33 ± 0.33
TSHRWAMGSRYEVHIAVGMF	1.13 ± 0.26
GENVVEACLWGQSQASWFIR	-0.009 ± 0.55
RMVMSE	0.16 ± 0.31
CSMMEPTMY	0.269 ± 0.41
NGIQGL	inactive
GVYNITTLLPRCVVNVVL	7.482 ± 0.028

Substance	amyloid nucleation score
CNFLFYPFWCWLSICYFRSM	4.55 ± 0.085
LSFFSLSIQSCMHGSLKIDS	-0.294 ± 1.1
CQSLIFASTYHRNSSFGKNV	2.92 ± 0.16
FEMGFHVWDM	inactive
SKKELLNAVPVGMG	0.113 ± 0.63
NLGGRFCAGFRRNHTCLGRN	-0.458 ± 0.33
RYALNYTIPEPYWT	-0.576 ± 0.55
FHSRAEICLIWNHIVQDWRN	3.58 ± 0.071
NQRVLLLLKSVLYMMVAK	inactive
WTCVEVHAVYCFGSVDELVL	8.556 ± 0.058
CFLTNRTRNSYRPSGKPLDM	-0.702 ± 0.61
FAPCNCSCVK	0.827 ± 0.58
YLRVKMPVIRVIVR	inactive
IFAGIHWNGQSAFLVFKCHI	inactive
LKVAVLVSGLGLA	0.54 ± 0.46
DLVHFLRNRWCGIR	-0.73 ± 0.55
SEPKEVCLVIGGEEYKGVVS	0.364 ± 0.37
FKYVFCSDEVGSMYVMCNCM	8.568 ± 0.034
VIFLVDNCCMACDSLEPRTI	0.513 ± 0.25
RDGYRSGYAESMVGVWFRLK	0.662 ± 0.81
RTGLTRYLLYFPV	0.326 ± 0.22
LVAHPLYGSTKWGN	-0.596 ± 0.79
VMFVTSV	0.201 ± 0.29
VMHFDLQICDRVHSRKSAPR	8.523 ± 0.038
YMWVCACRMSLIHGLSGHHD	0.536 ± 0.46
